Two molecules from article PMC2926616 (Nucleic Acids Research, 2010) can be followed below.

Series [1] addresses T1, Human RAD51 (human, UniProt Q06609 1-339).
T1 sequence (looked up): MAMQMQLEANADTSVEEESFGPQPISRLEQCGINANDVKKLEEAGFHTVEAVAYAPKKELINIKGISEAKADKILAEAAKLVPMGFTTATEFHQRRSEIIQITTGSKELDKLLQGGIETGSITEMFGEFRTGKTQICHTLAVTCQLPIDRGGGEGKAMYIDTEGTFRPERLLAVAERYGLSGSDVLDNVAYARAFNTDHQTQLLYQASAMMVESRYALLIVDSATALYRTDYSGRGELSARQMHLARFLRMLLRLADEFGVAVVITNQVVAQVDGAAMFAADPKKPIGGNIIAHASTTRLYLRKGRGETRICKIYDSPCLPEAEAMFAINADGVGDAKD
Description: pull-down.

Series [2] concerns the target RAD51 (human, UniProt Q06609 1-339). Description: EMSA. On the technique in general: A gel shift assay detects complexes by their altered migration in electrophoresis.

B1: Human GEMIN2 (natural protein, UniProt O14893 1-280, looked up)
chain: MRRAELAGLKTMAWVPAESAVEELMPRLLPVEPCDLTEGFDPSVPPRTPQEYLRRVQIEAAQCPDVVVAQIDPKKLKRKQSVNISLSGCQPAPEGYSPTLQWQQQQVAQFSTVRQNVNKHRSHWKSQQLDSNVTMPKSEDEEGWKKFCLGEKLCADGAVGPATNESPGIDYVQIGFPPLLSIVSRMNQATVTSVLEYLSNWFGERDFTPELGRWLYALLACLEKPLLPEAHSLIRQLARRCSEVRLLVDSKDDERVPALNLLICLVSRYFDQRDLADEPS
Regarding B1, in series [1], the binding result is given as “binds”.

B2: 49-mer dsDNA (dsDNA)
DNA 1: GTCCCAGGCCATTACAGATCAATCCTGAGCATGTTTACCAAGCGCATTG
DNA 2: CAATGCGCTTGGTAAACATGCTCAGGATTGATCTGTAATGGCCTGGGAC
In the case of B2, the binding result in series [2] is given as “binds”.
